Where a chain is given by its changes, count along the chain named. One block for each binder: values may come before it.
Experiments:
[1] = molecular target: T1, Flag-tagged β-TrCP2 (Fbw1b) (human, UniProt Q9UKB1 1-542); experiment: anti-Flag immunoprecipitation from transfected HeLa cells, blot for Cdc25A
T1 construct: F-box protein expressed from a Flag-tagged construct in HeLa cells; also called beta-TrCP2; not shown: Flag tag
T1 sequence: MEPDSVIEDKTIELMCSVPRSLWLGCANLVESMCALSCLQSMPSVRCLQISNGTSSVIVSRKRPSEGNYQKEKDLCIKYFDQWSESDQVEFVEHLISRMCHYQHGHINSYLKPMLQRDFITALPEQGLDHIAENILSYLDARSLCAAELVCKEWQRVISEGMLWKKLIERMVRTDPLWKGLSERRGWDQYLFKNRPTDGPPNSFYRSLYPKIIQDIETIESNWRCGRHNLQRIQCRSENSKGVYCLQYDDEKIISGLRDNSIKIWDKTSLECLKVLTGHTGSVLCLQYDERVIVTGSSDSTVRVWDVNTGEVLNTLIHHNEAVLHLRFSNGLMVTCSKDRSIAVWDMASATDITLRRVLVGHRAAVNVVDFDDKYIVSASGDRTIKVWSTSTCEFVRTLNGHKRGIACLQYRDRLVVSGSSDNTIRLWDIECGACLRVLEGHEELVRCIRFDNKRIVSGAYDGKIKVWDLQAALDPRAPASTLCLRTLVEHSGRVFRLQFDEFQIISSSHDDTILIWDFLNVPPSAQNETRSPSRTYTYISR
Text: (§1) FIG. 1. Cdc25A interacts with beta-TrCP1 and beta-TrCP2 in vivo (I). HeLa cells were transfected with the indicated Flag-tagged F-box protein constructs. F-box proteins were immunoprecipitated from extracts with an anti-Flag resin and immunocomplexes were blotted with Cul1, Cdc25A and Flag specific antibodies.

[2] = molecular target: T2, Flag-tagged β-TrCP1 (Fbw1a) (human, UniProt Q9Y297 1-605); experiment: as above
T2 construct: F-box protein expressed from a Flag-tagged construct in HeLa cells and pulled down with anti-Flag resin; also called beta-TrCP1; Flag-beta-TrCP1; not shown: Flag tag
T2 sequence: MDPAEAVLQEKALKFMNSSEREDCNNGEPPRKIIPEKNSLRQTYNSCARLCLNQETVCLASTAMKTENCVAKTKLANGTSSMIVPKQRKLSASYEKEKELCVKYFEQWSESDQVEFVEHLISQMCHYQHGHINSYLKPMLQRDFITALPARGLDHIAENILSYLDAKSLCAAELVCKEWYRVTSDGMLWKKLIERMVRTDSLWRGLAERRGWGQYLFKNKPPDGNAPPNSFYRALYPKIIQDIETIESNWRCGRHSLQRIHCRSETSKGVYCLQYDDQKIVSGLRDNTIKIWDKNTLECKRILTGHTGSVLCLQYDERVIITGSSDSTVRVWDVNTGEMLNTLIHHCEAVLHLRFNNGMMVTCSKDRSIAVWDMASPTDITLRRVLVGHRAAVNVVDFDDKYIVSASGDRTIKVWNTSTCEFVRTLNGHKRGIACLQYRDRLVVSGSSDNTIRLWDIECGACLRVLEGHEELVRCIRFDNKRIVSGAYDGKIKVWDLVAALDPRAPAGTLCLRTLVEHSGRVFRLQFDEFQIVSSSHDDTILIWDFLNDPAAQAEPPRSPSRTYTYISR
Text: as §1

Skp1 (endogenous) = molecular target: T3, Skp1 (endogenous) (human, UniProt P63208 2-163); experiment: Flag-tagged Cdc25A immunocomplexes blotted for Skp1
T3 construct: Human by the cell lines used
T3 sequence (P63208 2-163 limits assumed): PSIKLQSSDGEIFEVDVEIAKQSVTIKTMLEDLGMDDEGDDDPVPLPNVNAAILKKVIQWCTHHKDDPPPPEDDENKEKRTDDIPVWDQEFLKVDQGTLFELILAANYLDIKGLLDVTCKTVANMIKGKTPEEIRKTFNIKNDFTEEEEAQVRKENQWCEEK

Cul1 (endogenous) = molecular target: T4, Cul1 (endogenous) (human, UniProt Q13616 1-776); experiment: Flag-tagged Cdc25A immunocomplexes blotted for Cul1
T4 construct: Human by the cell lines used; also called Cul1 subunit
T4 sequence (Q13616 whole entry): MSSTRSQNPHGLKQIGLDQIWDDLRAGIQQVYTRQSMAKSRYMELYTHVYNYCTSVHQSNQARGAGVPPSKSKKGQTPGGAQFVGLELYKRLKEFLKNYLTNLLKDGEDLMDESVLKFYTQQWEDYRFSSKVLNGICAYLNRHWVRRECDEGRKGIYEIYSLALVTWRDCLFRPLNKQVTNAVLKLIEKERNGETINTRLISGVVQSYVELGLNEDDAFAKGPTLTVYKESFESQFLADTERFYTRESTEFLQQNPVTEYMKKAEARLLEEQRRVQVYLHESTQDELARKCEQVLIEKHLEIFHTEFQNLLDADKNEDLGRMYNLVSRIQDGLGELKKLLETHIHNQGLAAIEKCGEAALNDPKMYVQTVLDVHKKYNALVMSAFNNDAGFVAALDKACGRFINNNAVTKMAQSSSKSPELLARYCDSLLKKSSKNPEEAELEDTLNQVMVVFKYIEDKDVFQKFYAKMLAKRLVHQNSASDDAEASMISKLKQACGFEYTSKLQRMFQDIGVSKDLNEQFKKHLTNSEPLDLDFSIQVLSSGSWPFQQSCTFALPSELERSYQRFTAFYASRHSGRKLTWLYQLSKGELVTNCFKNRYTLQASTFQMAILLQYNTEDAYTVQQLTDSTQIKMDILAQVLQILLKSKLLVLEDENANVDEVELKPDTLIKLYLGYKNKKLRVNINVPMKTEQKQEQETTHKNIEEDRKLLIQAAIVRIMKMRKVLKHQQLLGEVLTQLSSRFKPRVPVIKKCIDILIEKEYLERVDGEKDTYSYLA

β-TrCP1 (endogenous) = molecular target: T5, β-TrCP1 (endogenous) (human, UniProt Q9Y297 1-605); experiment: Flag-tagged Cdc25A immunocomplexes blotted for β-TrCP1
T5 construct: also called beta-TrCP
T5 sequence: T2 sequence

Flag-tagged Skp2 = molecular target: T6, Flag-tagged Skp2 (human, UniProt Q13309 1-424, limits assumed); experiment: anti-Flag immunoprecipitation from HeLa cells co-transfected with His-Cdc25A, blot for Cdc25A
T6 construct: not shown: Flag tag
T6 sequence (Q13309 whole entry): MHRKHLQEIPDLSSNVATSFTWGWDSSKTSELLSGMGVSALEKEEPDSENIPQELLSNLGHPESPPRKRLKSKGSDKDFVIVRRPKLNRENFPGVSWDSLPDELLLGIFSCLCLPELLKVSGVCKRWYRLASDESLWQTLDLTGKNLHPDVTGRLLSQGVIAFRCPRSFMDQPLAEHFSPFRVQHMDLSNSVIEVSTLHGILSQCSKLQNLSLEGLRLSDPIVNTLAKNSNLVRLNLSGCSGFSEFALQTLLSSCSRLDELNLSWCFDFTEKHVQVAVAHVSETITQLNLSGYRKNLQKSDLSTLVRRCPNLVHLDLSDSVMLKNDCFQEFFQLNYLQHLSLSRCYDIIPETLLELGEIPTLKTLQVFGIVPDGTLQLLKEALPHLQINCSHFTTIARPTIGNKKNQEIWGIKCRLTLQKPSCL

[3] = molecular target: T7, Flag-tagged Fbw7 (form not stated, FIG. 2) (human, UniProt Q969H0 1-707, limits assumed); experiment: as above
T7 construct: The Fbw7 of the parallel experiment with overexpressed Cdc25A; not shown: Flag tag
T7 sequence (Q969H0 whole entry): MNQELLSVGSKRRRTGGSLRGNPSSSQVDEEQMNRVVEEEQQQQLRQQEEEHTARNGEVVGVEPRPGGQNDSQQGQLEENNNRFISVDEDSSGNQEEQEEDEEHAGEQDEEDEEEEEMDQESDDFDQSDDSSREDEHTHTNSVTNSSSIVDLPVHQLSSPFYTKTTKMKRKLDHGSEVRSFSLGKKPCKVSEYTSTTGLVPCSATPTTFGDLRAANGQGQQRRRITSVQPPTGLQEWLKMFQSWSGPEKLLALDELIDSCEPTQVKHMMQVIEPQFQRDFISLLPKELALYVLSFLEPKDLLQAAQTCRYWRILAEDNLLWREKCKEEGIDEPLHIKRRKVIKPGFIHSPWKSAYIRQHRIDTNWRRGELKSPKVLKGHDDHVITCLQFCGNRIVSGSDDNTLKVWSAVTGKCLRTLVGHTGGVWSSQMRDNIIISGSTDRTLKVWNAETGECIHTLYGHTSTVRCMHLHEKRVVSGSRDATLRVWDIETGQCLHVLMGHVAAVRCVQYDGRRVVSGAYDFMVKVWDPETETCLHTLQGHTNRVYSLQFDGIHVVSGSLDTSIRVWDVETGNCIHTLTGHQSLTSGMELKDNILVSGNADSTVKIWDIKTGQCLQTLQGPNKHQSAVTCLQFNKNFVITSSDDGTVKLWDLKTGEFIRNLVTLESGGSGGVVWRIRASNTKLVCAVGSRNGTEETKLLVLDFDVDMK

[4] = molecular target: T1, Flag-tagged β-TrCP2 (Fbw1b); experiment: as above
[5] = molecular target: T2, Flag-tagged β-TrCP1 (Fbw1a); experiment: as above
[6] = molecular target: T2, Flag-tagged β-TrCP1 (Fbw1a); experiment: co-expression in HeLa cells, anti-Flag β-TrCP1 immunocomplexes blotted for Cdc25A

binding result [1]: binds
binding result [2]: binds
B1: Cdc25A (endogenous, HeLa cells) (enzyme)
chain: MELGPSPAPRRLLFACSPPPASQPVVKALFGASAAGGLSPVTNLTVTMDQLQGLGSDYEQPLEVKNNSNLQRMGSSESTDSGFCLDSPGPLDSKENLENPMRRIHSLPQKLLGCSPALKRSHSDSLDHDIFQLIDPDENKENEAFEFKKPVRPVSRGCLHSHGLQEGKDLFTQRQNSAQLGMLSSNERDSSEPGNFIPLFTPQSPVTATLSDEDDGFVDLLDGENLKNEEETPSCMASLWTAPLVMRTTNLDNRCKLFDSPSLCSSSTRSVLKRPERSQEESPPGSTKRRKSMSGASPKESTNPEKAHETLHQSLSLASSPKGTIENILDNDPRDLIGDFSKGYLFHTVAGKHQDLKYISPEIMASVLNGKFANLIKEFVIIDCRYPYEYEGGHIKGAVNLHMEEEVEDFLLKKPIVPTDGKRVIVVFHCEFSSERGPRMCRYVRERDRLGNEYPKLHYPELYVLKGGYKEFFMKCQSYCEPPSYRPMHHEDFKEDLKKFRTKSRTWAGEKSKREMYSRLKKL
modifications: hyperphosphorylated in the form that co-precipitates with beta-TrCP (λ-phosphatase gave a faster migrating band); sites not mapped in that experiment
notes: also called cell division cycle 25A

binding result (Skp1 (endogenous)): no binding
binding result (Cul1 (endogenous)): no binding
binding result (β-TrCP1 (endogenous)): no binding
B2: Flag-tagged Cdc25A DSG2x (enzyme)
chain: B1 chain with S81A, S87A
notes: Point mutant of the full-length pCDNA3.1-Flag-Cdc25A construct; also called DSG2x mutated protein; DSG2x protein; not shown: Flag tag from pCDNA3.1-Flag vector

binding result (Flag-tagged Skp2): no binding
binding result [3]: no binding
binding result [4]: binds
binding result [5]: binds
B3: His-Cdc25A (overexpressed wild type) (enzyme)
chain: B1 chain
notes: also called overexpressed Cdc25A; not shown: His tag

binding result [6]: no binding
B4: His-tagged Cdc25A DSG3x (enzyme)
chain: B1 chain with S78A, S81A, S87A
notes: not shown: His tag

binding result [6]: no binding
B5: His-tagged Cdc25A DSG2x (enzyme)
chain: B1 chain with S81A, S87A
notes: not shown: His tag

Reference: patent publication US20060177829A1 (NEW YORK UNIVERSITY, published 2006)
